Laboratory results reported in article PMC446230.

Experiments:
[1] = biological target: DC-SIGN (DC-specific intercellular adhesion molecule-3 (ICAM-3)-grabbing nonintegrin) on Raji/DC-SIGN cells (human) (UniProt Q9NNX6); assay: virus adhesion to cells, captured virus measured by p24 ELISA
[2] = biological target: DC-SIGN (DC-specific intercellular adhesion molecule-3 (ICAM-3)-grabbing nonintegrin) on K562/DC-SIGN cells (human) (UniProt Q9NNX6); assay: as above

R5-tropic HIV-1ADA envelope glycoprotein on pseudotyped HIV-Luc/ADA particles (natural protein)
fold HIV-1 binding relative to the parental cells [1]: 1.5 fold | fold HIV-1 binding relative to the parental cells [2]: 1.8 fold
